B1: Guanine nucleotide exchange factor SopE (Salmonella typhimurium), O52623 (parent)
chain: MTKITLSPQNFRIQKQETTLLKEKSTEKNSLAKSILAVKNHFIELRSKLSERFISHKNTESSATHFHRGSASEGRAVLTNKVVKDFMLQTLNDIDIRGSASKDPAYASQTREAILSAVYSKNKDQCCNLLISKGINIAPFLQEIGEAAKNAGLPGTTKNDVFTPSGAGANPFITPLISSANSKYPRMFINQHQQASFKIYAEKIIMTEVAPLFNECAMPTPQQFQLILENIANKYIQNTP

Variants of: B1
Details: with cdc42_human CDC42, P60953
cdc42_human CDC42, P60953, sequence (P60953 whole entry, looked up): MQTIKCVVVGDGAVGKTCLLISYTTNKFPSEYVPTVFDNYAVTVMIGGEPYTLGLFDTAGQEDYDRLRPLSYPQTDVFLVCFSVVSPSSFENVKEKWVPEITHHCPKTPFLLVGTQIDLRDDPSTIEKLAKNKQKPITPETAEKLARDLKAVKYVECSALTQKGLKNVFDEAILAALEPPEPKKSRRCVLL

Question: Which “effect of a mutation on the interaction” value does the source give for G168A here?
Answer: decreasing interaction
